What was measured:
[1] = biological target: T1, HA-DSK2a (Arabidopsis thaliana, UniProt Q9SII9 1-538); assay: pull-down
T1 sequence (looked up): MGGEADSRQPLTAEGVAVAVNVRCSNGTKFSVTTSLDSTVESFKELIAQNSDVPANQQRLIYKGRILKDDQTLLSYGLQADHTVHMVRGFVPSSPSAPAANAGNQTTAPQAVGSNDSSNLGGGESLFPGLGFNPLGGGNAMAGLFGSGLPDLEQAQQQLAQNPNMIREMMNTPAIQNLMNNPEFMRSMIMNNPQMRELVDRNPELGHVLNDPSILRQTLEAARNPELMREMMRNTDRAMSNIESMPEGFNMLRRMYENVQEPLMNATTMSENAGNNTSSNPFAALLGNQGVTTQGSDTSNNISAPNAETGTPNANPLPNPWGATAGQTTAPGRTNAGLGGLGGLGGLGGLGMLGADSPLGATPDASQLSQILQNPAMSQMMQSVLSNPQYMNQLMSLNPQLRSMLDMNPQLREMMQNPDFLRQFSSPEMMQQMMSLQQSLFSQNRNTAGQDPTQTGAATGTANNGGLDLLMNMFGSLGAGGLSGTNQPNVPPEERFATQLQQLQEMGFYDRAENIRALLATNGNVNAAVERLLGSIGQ

[2] = biological target: T2, GST-RPN10 (amino acids 201 to 386) (Arabidopsis thaliana, UniProt P55034 201-386); assay: pull-down
T2 sequence (looked up): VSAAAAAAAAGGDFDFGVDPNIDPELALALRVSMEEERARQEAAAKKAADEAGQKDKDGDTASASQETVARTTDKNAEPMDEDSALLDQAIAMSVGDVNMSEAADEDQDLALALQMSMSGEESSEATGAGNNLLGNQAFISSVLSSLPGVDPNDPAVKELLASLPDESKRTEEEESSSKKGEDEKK

[3] = biological target: T3, GST-PUX9 (Arabidopsis thaliana, UniProt Q4V3D3 1-469); assay: pull-down
T3 sequence (looked up): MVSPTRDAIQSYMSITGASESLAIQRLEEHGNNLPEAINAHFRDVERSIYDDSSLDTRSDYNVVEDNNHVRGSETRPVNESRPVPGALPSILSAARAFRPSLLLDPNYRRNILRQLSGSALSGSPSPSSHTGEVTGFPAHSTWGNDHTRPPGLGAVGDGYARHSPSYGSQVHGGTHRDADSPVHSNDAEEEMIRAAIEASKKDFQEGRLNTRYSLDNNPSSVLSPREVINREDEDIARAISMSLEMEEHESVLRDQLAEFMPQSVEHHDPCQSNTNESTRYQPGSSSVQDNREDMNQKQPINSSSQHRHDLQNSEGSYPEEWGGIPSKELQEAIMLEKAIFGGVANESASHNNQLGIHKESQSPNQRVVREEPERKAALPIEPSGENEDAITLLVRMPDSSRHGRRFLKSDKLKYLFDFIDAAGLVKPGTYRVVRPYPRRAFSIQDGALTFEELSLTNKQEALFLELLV

[4] = biological target: T4, GST-PUX8 (Arabidopsis thaliana, UniProt F4JPR7 1-564); assay: pull-down
T4 sequence (looked up): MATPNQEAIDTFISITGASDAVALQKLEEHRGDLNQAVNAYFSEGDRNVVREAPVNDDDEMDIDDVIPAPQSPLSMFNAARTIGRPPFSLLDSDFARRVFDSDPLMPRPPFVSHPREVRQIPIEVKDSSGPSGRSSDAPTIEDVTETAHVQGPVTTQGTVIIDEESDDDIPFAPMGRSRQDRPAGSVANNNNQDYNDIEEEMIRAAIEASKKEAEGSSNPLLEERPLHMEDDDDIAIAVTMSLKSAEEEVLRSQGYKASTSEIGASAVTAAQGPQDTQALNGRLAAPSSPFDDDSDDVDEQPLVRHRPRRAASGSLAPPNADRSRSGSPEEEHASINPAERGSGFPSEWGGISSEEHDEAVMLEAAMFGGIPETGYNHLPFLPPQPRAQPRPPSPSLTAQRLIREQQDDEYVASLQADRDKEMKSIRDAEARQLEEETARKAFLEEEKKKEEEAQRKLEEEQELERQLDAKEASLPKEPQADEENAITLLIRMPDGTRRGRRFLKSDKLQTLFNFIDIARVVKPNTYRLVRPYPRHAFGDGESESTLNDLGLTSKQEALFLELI

[5] = biological target: T5, GST-PUX13 (Arabidopsis thaliana, UniProt Q9C5G7 1-525); assay: pull-down
T5 sequence (looked up): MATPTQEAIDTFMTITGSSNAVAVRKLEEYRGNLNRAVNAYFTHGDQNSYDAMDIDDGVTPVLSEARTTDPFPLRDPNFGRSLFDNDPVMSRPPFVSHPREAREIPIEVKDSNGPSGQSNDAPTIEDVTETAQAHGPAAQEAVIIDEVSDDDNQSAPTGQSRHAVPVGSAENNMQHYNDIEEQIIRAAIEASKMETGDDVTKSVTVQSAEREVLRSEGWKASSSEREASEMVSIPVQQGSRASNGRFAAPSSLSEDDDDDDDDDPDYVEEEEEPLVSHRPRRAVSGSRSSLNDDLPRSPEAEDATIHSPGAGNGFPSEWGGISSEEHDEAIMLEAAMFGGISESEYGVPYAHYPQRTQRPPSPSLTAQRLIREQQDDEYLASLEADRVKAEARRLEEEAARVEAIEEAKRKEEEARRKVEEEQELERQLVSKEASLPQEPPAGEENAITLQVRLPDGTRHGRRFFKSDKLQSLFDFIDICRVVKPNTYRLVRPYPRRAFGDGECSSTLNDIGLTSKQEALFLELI

[6] = biological target: T6, GST-PUX7 (Arabidopsis thaliana, UniProt Q94JZ8 1-468); assay: pull-down
T6 sequence (looked up): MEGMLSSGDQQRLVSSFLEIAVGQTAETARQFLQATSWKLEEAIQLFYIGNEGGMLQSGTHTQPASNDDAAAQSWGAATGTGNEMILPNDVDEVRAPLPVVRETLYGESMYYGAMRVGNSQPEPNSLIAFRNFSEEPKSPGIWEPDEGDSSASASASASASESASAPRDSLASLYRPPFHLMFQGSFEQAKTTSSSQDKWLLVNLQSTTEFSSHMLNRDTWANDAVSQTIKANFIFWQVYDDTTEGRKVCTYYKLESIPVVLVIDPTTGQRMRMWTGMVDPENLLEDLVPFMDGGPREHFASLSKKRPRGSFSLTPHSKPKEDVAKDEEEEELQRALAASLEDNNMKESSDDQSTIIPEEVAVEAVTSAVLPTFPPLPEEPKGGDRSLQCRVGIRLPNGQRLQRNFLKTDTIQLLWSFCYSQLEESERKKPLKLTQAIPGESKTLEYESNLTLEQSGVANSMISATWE

[7] = biological target: T7, 6His-PUX8 (Arabidopsis thaliana, UniProt F4JPR7 1-564); assay: ITC
T7 sequence (looked up): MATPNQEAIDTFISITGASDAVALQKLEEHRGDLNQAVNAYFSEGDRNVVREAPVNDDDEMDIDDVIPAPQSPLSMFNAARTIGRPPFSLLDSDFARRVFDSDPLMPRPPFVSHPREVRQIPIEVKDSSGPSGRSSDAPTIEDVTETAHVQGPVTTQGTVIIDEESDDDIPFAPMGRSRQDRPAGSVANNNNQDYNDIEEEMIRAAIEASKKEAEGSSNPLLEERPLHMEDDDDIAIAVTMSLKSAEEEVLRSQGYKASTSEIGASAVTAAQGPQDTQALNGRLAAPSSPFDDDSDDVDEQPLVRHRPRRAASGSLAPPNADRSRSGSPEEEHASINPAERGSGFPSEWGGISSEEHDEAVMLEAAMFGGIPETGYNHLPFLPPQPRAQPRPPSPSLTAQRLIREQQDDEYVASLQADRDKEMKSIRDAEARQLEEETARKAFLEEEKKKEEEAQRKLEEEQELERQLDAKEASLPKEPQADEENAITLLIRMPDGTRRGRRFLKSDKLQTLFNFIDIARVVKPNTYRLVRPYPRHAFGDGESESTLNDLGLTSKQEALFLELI

[8] = biological target: T8, 6His-PUX7 (Arabidopsis thaliana, UniProt Q94JZ8 1-468); assay: ITC
T8 sequence (looked up): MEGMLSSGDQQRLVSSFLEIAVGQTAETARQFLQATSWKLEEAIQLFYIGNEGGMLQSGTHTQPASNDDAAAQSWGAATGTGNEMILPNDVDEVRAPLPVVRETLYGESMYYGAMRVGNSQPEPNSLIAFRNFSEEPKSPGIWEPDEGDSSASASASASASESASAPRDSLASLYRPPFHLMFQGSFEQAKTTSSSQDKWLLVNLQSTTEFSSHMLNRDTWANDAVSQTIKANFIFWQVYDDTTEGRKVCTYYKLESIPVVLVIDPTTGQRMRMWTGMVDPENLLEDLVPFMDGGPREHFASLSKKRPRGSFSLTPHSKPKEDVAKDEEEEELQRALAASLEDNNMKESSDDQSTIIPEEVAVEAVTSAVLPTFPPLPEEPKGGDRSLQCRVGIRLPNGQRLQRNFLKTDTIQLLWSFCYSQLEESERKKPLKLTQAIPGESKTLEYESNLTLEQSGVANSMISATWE

[9] = biological target: T9, 6His-PUX9 (Arabidopsis thaliana, UniProt Q4V3D3 1-469); assay: ITC
T9 sequence (looked up): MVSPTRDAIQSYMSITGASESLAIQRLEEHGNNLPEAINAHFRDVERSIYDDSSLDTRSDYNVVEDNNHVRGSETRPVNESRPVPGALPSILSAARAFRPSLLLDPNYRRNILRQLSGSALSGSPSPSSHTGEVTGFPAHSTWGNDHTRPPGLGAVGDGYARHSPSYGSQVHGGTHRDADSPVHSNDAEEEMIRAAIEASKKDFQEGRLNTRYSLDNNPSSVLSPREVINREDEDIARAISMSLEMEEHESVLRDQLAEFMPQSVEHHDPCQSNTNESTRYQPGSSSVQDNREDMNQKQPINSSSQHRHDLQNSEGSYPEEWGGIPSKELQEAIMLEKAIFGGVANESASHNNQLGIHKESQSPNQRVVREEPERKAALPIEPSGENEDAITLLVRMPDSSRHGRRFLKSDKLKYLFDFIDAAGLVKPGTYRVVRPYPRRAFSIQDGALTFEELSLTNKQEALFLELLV

[10] = biological target: T10, 6His-PUX13 (Arabidopsis thaliana, UniProt Q9C5G7 1-525); assay: ITC
T10 sequence (looked up): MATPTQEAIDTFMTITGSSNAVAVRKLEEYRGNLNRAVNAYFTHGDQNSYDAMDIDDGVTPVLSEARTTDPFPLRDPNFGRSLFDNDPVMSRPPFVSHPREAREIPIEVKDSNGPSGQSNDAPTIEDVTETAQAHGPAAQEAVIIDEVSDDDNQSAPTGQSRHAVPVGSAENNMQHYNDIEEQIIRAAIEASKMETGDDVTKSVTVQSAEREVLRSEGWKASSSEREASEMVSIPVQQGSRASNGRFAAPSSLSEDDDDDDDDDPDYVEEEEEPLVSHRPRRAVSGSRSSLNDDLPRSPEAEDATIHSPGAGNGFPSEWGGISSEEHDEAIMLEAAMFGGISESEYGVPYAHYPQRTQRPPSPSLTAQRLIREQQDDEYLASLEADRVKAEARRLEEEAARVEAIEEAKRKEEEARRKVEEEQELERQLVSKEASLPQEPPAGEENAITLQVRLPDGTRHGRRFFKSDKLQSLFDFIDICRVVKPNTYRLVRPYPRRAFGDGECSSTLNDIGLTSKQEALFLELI

[11] = biological target: T11, Arabidopsis DSK2a (pull-down of Figure S1E) (Arabidopsis thaliana, UniProt Q9SII9 1-538); assay: pull-down
T11 sequence (looked up): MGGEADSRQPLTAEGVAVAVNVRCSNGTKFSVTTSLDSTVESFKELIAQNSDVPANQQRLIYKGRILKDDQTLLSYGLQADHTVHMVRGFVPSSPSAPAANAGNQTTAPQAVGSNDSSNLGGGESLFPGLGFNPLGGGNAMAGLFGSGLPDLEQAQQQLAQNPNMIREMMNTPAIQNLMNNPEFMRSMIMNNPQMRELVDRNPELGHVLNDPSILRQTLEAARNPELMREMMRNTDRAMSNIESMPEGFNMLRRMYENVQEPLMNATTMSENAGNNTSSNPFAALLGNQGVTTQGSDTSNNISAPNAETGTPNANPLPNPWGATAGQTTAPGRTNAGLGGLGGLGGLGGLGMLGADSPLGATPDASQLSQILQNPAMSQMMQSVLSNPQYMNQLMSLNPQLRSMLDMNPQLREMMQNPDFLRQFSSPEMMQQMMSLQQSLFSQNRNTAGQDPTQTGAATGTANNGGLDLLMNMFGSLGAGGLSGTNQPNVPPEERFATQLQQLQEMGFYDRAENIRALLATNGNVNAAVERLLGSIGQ

[12] = biological target: T12, GST-Ubx5 (S. cerevisiae, UniProt Q06682 1-500); assay: pull-down
T12 sequence (looked up): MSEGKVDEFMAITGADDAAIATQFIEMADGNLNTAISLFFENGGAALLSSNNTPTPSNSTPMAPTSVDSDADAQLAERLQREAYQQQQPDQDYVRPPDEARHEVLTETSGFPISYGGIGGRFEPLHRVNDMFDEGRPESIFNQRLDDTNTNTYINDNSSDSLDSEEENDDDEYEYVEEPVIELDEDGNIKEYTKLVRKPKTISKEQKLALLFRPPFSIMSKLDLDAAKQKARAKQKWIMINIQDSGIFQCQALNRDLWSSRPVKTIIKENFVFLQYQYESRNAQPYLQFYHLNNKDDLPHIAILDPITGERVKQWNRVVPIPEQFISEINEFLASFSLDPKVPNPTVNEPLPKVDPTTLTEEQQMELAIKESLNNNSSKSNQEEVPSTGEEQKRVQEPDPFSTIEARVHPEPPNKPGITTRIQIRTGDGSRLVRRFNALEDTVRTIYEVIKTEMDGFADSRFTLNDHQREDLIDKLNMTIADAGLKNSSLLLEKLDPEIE

Measured: binding result

B1: 6His-ATG8e (natural protein, Arabidopsis thaliana, UniProt Q8S926 1-118, looked up)
chain: MNKGSIFKMDNDFEKRKAEAGRIREKYPDRIPVIVEKAEKSEVPNIDKKKYLVPSDLTVGQFVYVIRKRIKLSAEKAIFIFVDNVLPPTGELMSSVYEDKKDEDGFLYITYSGENTFG
not listed: [12]
binds: all other assays above

B2: 6His-Atg8 (yeast) (natural protein, S. cerevisiae, UniProt P38182 1-116, looked up)
chain: MKSTFKSEYPFEKRKAESERIADRFKNRIPVICEKAEKSDIPEIDKRKYLVPADLTVGQFVYVIRKRIMLPPEKAIFIFVNDTLPPTAALMSAIYQEHKDKDGFLYVTYSGENTFG
binds: [12]

Source: article PMC6810650 (Cell, 2019)
